Measurements: patent CN101066999A

Tests used:
[1] = substrate: 人OPN (Osteopontin, R&D Systems) (human) (UniProt P10451); experiment: sandwich ELISA: mAbs coated at 1.0 μg/ml; OPN at 6.25-100 pg/mL for this mAb and 6.25-100 ng/mL for the commercial mAb
[2] = substrate: 人OPN (Osteopontin, R&D Systems) (human) (UniProt P10451); experiment: sandwich ELISA: mAb coated at 1.0 μg/ml, OPN standard, rabbit anti-human OPN polyclonal serum as detector

fold higher sensitivity for human OPN than the commercial mAb MAB14331 [1]: 1000 fold
灵敏度 (detection sensitivity for OPN) [2]: 6.52 pg/mL
B1: 重组抗OPN单克隆抗体 7G2 (antibody, V domains shown)
VL: DILMTQTPLSLPVSLGDQASISCRSSQSLVHSNGNTYLHWYLQKPGQSPKLLISKVSNRFSGVPDRFSGSGSGTDFTLKISRVEAEDLGVYFCSQSTHVPWTFGGGTKLEIKR
VH: MAQVQLEQSGPELVKPGASVKMSCKSSGYTFTTYVMHVKQKPGQGLEWIGYINPYNDGSKYNEKFKGKATLTSDKSSNTAYMELSSLTSEDSAVYYSDSHYGGSPAYWGQGTLVTVSA
